Experimental data reported in the supplement of paper PMC5998384.

Tests used:
HeLa Kyoto [1] = test: solubility in G1/S (NP-40 vs SDS abundance) (log2 ratio); higher = more soluble; conditions: cell cycle stage: G1/S
HeLa Kyoto [2] = test: solubility change mitosis vs G1/S (difference of NP-40 vs SDS log2 ratios) (log2 ratio difference); higher = more soluble in mitosis
HeLa Kyoto [3] = test: thermal stability score vs G1/S (z-score of summed log2 fold changes over temperatures); higher = more thermally stable than in G1/S
[4] = cell cycle stage: early G1 (4.5 h after nocodazole release)
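For solubility change mitosis vs G1/S (difference of NP-40 vs SDS log2 ratios) in this document: synchronized HeLa Kyoto cells (double thymidine block for G1/S, nocodazole release for mitosis), protein amounts in NP-40 versus SDS lysates quantified by mass spectrometry, three biological replicates.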
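For solubility in G1/S (NP-40 vs SDS abundance) in this document: HeLa Kyoto cells arrested at G1/S by double thymidine block, proteins quantified by TMT10plex mass spectrometry in mild NP-40 versus SDS extracts, three biological replicates.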
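For thermal stability score vs G1/S (z-score of summed log2 fold changes over temperatures) in this document: synchronized HeLa Kyoto cells, proteins quantified by TMT10plex mass spectrometry, three biological replicates, mitosis taken 0.5 h after nocodazole release, G1/S directly after double thymidine block.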

Sequence of NPTN (chain, as listed by the source): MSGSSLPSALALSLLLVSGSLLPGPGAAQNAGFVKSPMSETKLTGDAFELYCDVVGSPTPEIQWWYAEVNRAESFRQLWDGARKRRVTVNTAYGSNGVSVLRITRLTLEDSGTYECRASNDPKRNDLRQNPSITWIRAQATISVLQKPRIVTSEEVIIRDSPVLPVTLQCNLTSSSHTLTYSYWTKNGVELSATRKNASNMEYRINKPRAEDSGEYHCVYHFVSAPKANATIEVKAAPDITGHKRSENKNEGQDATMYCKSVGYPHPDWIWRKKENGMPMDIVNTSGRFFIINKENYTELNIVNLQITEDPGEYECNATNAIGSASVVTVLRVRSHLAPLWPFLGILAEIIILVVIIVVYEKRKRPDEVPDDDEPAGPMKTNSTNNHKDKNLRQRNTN

Row | Substance | solubility in G1/S (log2) (HeLa Kyoto [1]) | solubility change mitosis (log2) (HeLa Kyoto [2]) | thermal stability score (HeLa Kyoto [3]; [4]) | thermal stability score (HeLa Kyoto [3]; cell cycle stage: mitosis)
1 | MSQGILSPPAGLLSDDDVVVSPMFESTAADLGSVVRKNLLSDCSVVSTSLEDKQQVPSEDSMEKVKVYLRVRPLLPSELERQEDQGCVRIENVETLVLQAPKDSFALKSNERGIGQATHRFTFSQIFGPEVGQASFFNLTVKEMVKDVLKGQNWLIYTYGVTNSGKTHTIQGTIKDGGILPRSLALIFNSLQGQLHPTPDLKPLLSNEVIWLDSKQIRQEEMKKLSLLNGGLQEEELSTSLKRSVYIESRIGTSTSFDSGIAGLSSISQCTSSSQLDETSHRWAQPDTAPLPVPANIRFSIWISFFEIYNELLYDLLEPPSQQRKRQTLRLCEDQNGNPYVKDLNWIHVQDAEEAWKLLKVGRKNQSFASTHLNQNSSRSHSIFSIRILHLQGEGDIVPKISELSLCDLAGSERCKDQKSGERLKEAGNINTSLHTLGRCIAALRQNQQNRSKQNLVPFRDSKLTRVFQGFFTGRGRSCMIVNVNPCASTYDETLHVAKFSAIASQLVHAPPMQLGFPSLHSFIKEHSLQVSPSLEKGAKADTGLDDDIENEADISMYGKEELLQVVEAMKTLLLKERQEKLQLEMHLRDEICNEMVEQMQQREQWCSEHLDTQKELLEEMYEEKLNILKESLTSFYQEEIQERDEKIEELEALLQEARQQSVAHQQSGSELALRRSQRLAASASTQQLQEVKAKLQQCKAELNSTTEELHKYQKMLEPPPSAKPFTIDVDKKLEEGQKNIRLLRTELQKLGESLQSAERACCHSTGAGKLRQALTTCDDILIKQDQTLAELQNNMVLVKLDLRKKAACIAEQYHTVLKLQGQVSAKKRLGTNQENQQPNQQPPGKKPFLRNLLPRTPTCQSSTDCSPYARILRSRRSPLLKSGPFGKKY [KIF20A] | -0.582 | -0.0791 | 0.449 | 3.61
2 | MSQGSPGDWAPLDPTPGPPASPNPFVHELHLSRLQRVKFCLLGALLAPIRVLLAFIVLFLLWPFAWLQVAGLSEEQLQEPITGWRKTVCHNGVLGLSRLLFFLLGFLRIRVRGQRASRLQAPVLVAAPHSTFFDPIVLLPCDLPKVVSRAENLSVPVIGALLRFNQAILVSRHDPASRRRVVEEVRRRATSGGKWPQVLFFPEGTCSNKKALLKFKPGAFIAGVPVQPVLIRYPNSLDTTSWAWRGPGVLKVLWLTASQPCSIVDVEFLPVYHPSPEESRDPTLYANNVQRVMAQALGIPATECEFVGSLPVIVVGRLKVALEPQLWELGKVLRKAGLSAGYVDAGAEPGRSRMISQEEFARQLQLSDPQTVAGAFGYFQQDTKGLVDFRDVALALAALDGGRSLEELTRLAFELFAEEQAEGPNRLLYKDGFSTILHLLLGSPHPAATALHAELCQAGSSQGLSLCQFQNFSLHDPLYGKLFSTYLRPPHTSRGTSQTPNASSPGNPTALANGTVQAPKQKGD [LPCAT4] | -0.0461 | -0.122 | 0.358 | 0.234
3 | MSSACDAGDHYPLHLLVWKNDYRQLEKELQGQNVEAVDPRGRTLLHLAVSLGHLESARVLLRHKADVTKENRQGWTVLHEAVSTGDPEMVYTVLQHRDYHNTSMALEGVPELLQKILEAPDFYVQMKWEFTSWVPLVSRICPNDVCRIWKSGAKLRVDITLLGFENMSWIRGRRSFIFKGEDNWAELMEVNHDDKVVTTERFDLSQEMERLTLDLMKPKSREVERRLTSPVINTSLDTKNIAFERTKSGFWGWRTDKAEVVNGYEAKVYTVNNVNVITKIRTEHLTEEEKKRYKADRNPLESLLGTVEHQFGAQGDLTTECATANNPTAITPDEYFNEEFDLKDRDIGRPKELTIRTQKFKAMLWMCEEFPLSLVEQVIPIIDLMARTSAHFARLRDFIKLEFPPGFPVKIEIPLFHVLNARITFGNVNGCSTAEESVSQNVEGTQADSASHITNFEVDQSVFEIPESYYVQDNGRNVHLQDEDYEIMQFAIQQSLLESSRSQELSGPASNGGISQTNTYDAQYERAIQESLLTSTEGLCPSALSETSRFDNDLQLAMELSAKELEEWELRLQEEEAELQQVLQLSLTDK [ANKRD13A] | -0.139 | -0.0203 | 0.86 | 0.416
4 | MSSLGASFVQIKFDDLQFFENCGGGSFGSVYRAKWISQDKEVAVKKLLKIEKEAEILSVLSHRNIIQFYGVILEPPNYGIVTEYASLGSLYDYINSNRSEEMDMDHIMTWATDVAKGMHYLHMEAPVKVIHRDLKSRNVVIAADGVLKICDFGASRFHNHTTHMSLVGTFPWMAPEVIQSLPVSETCDTYSYGVVLWEMLTREVPFKGLEGLQVAWLVVEKNERLTIPSSCPRSFAELLHQCWEADAKKRPSFKQIISILESMSNDTSLPDKCNSFLHNKAEWRCEIEATLERLKKLERDLSFKEQELKERERRLKMWEQKLTEQSNTPLLPSFEIGAWTEDDVYCWVQQLVRKGDSSAEMSVYASLFKENNITGKRLLLLEEEDLKDMGIVSKGHIIHFKSAIEKLTHDYINLFHFPPLIKDSGGEPEENEEKIVNLELVFGFHLKPGTGPQDCKWKMYMEMDGDEIAITYIKDVTFNTNLPDAEILKMTKPPFVMEKWIVGIAKSQTVECTVTYESDVRTPKSTKHVHSIQWSRTKPQDEVKAVQLAIQTLFTNSDGNPGSRSDSSADCQWLDTLRMRQIASNTSLQRSQSNPILGSPFFSHFDGQDSYAAAVRRPQVPIKYQQITPVNQSRSSSPTQYGLTKNFSSLHLNSRDSGFSSGNTDTSSERGRYSDRSRNKYGRGSISLNSSPRGRYSGKSQHSTPSRGRYPGKFYRVSQSALNPHQSPDFKRSPRDLHQPNTIPGMPLHPETDSRASEEDSKVSEGGWTKVEYRKKPHRPSPAKTNKERARGDHRGWRNF [ZAK] | -1.14 | 0.649 | -0.231 | -2.89
5 | MTGLYELVWRVLHALLCLHRTLTSWLRVRFGTWNWIWRRCCRAASAAVLAPLGFTLRKPPAVGRNRRHHRHPRGGSCLAAAHHRMRWRADGRSLEKLPVHMGLVITEVEQEPSFSDIASLVVWCMAVGISYISVYDHQGIFKRNNSRLMDEILKQQQELLGLDCSKYSPEFANSNDKDDQVLNCHLAVKVLSPEDGKADIVRAAQDFCQLVAQKQKRPTDLDVDTLASLLSSNGCPDPDLVLKFGPVDSTLGFLPWHIRLTEIVSLPSHLNISYEDFFSALRQYAACEQRLGK [NUS1] | 0.00319 | 0.162 | -0.859 | 0.124
6 | MTQPVPRLSVPAALALGSAALGAAFATGLFLGRRCPPWRGRREQCLLPPEDSRLWQYLLSRSMREHPALRSLRLLTLEQPQGDSMMTCEQAQLLANLARLIQAKKALDLGTFTGYSALALALALPADGRVVTCEVDAQPPELGRPLWRQAEAEHKIDLRLKPALETLDELLAAGEAGTFDVAVVDADKENCSAYYERCLQLLRPGGILAVLRVLWRGKVLQPPKGDVAAECVRNLNERIRRDVRVYISLLPLGDGLTLAFKI [COMTD1] | 0.16 | 0.00811 | -0.487 | 0.44
7 | MWDQRLVRLALLQHLRAFYGIKVKGVRGQCDRRRHETAATEIGGKIFGVPFNALPHSAVPEYGHIPSFLVDACTSLEDHIHTEGLFRKSGSVIRLKALKNKVDHGEGCLSSAPPCDIAGLLKQFFRELPEPILPADLHEALLKAQQLGTEEKNKATLLLSCLLADHTVHVLRYFFNFLRNVSLRSSENKMDSSNLAVIFAPNLLQTSEGHEKMSSNTEKKLRLQAAVVQTLIDYASDIGRVPDFILEKIPAMLGIDGLCATPSLEGFEEGEYETPGEYKRKRRQSVGDFVSGALNKFKPNRTPSITPQEERIAQLSESPVILTPNAKRTLPVDSSHGFSSKKRKSIKHNFNFELLPSNLFNSSSTPVSVHIDTSSEGSSQSSLSPVLIGGNHLITAGVPRRSKRIAGKKVCRVESGKAGCFSPKISHKEKVRRSLRLKFNLGKNGREVNGCSGVNRYESVGWRLANQQSLKNRIESVKTGLLFSPDVDEKLPKKGSEKISKSEETLLTPERLVGTNYRMSWTGPNNSSFQEVDANEASSMVENLEVENSLEPDIMVEKSPATSCELTPSNLNNKHNSNITSSPLSGDENNMTKETLVKVQKAFSESGSNLHALMNQRQSSVTNVGKVKLTEPSYLEDSPEENLFETNDLTIVESKEKYEHHTGKGEKCFSERDFSPLQTQTFNRETTIKCYSTQMKMEHEKDIHSNMPKDYLSKQEFSSDEEIKKQQSPKDKLNNKLKENENMMEGNLPKCAAHSKDEARSSFSQQSTCVVTNLSKPRPMRIAKQQSLETCEKTVSESSQMTEHRKVSDHIQWFNKLSLNEPNRIKVKSPLKFQRTPVRQSVRRINSLLEYSRQPTGHKLASLGDTASPLVKSVSCDGALSSCIESASKDSSVSCIKSGPKEQKSMSCEESNIGAISKSSMELPSKSFLKMRKHPDSVNASLRSTTVYKQKILSDGQVKVPLDDLTNHDIVKPVVNNNMGISSGINNRVLRRPSERGRAWYKGSPKHPIGKTQLLPTSKPVDL [ARHGAP11A] | -0.915 | -0.288 | -0.137 | -0.131
8 | NHS | -0.153 | -0.00515 | 0.656 | 0.325
9 | NPTN | 0.36 | 0.245 | -1.2 | -2.14
10 | PTEN | -0.27 | 0.174 | -0.257 | 0.0266
11 | SACS | -0.294 | -0.045 | -0.0387 | -0.338
12 | TMEM131 | -0.0423 | -0.0264 | -1.15 | -1.6
13 | UBR3 | -0.174 | -0.171 | -0.103 | -0.24
14 | VKORC1 | -0.134 | 0.136 | -0.761 | -1.55
